{"source": "patent US20130224191A1", "about": "“NOTUM PROTEIN MODULATORS AND METHODS OF USE” (priority 2010, published 2013)", "molecules": {"B1": {"name": "SC2.D2.2 (antibody, V domains shown)", "VH": "DVQLVESGGGLVQPGGSRKISCAASGFTFSSYGMHWVRQAPEKGLEWVAYISSSTVTTYYADTVKGRFTISRDNANNTLFLQMTSLRSEDTAMYYCSRQNWDGGYFDVWGAGTTVTVSS", "VL": "DIVLTQSLASLAVSLGQRATISCRASKSVSSSGYSYMHWYQQKPGQPPKLLIYLASNLESGVPARFSGSGSGTDFTLNIHPVEEEDAATYYCQHSRALPLTFGAGTKLELKR", "notes": "also called murine SC2.D2.2"}}, "key": {"macaque Notum N141D": {"system": "macaque Notum N141D", "assay": "Neutralization of point mutated macaque Notum, 4-MUH assay", "assay_type": "biochemical", "protocol": "In addition to the assays described in Examples 23 and 24, a fluorescent esterase substrate, 4-methylumbelliferyl heptanoate (Sigma), can be used to measure the activity of hydrolases using standard assay conditions (Richardson and Smith, 2007, PMID: 17620441; Jacks and Kircher, 1967, PMID: 5582971). Briefly, 4-MUH was dissolved in DMSO to a final concentration of 1.2 mM. This substrate was diluted 1:10 into assay buffer (0.1M Tris, pH 7.5, 50 mM NaCl, 0.05% Brij) and incubated with defined amounts of Notum enzyme or point-mutated Notum enzymes, and enzymatic release of the fluorescent molecule 4-methylumbelliferone monitored (355 nm excitation, 460 nm emission) using a Wallac Victor3 Multilabel Counter (Perkin Elmer).\nSimilarly, the macaque residue at this position was point mutated to the human residue (N141D). […] However, these point mutants differed in their ability to be neutralized by SC2.D2.2 (FIG. 26)."}, "[1]": {"target": "T1, human Notum (recombinant or endogenous; construct not specified at the place of use) (human, UniProt Q6P988 20-496)", "T1 construct": "also called hNotum; human Notum protein", "T1 sequence": "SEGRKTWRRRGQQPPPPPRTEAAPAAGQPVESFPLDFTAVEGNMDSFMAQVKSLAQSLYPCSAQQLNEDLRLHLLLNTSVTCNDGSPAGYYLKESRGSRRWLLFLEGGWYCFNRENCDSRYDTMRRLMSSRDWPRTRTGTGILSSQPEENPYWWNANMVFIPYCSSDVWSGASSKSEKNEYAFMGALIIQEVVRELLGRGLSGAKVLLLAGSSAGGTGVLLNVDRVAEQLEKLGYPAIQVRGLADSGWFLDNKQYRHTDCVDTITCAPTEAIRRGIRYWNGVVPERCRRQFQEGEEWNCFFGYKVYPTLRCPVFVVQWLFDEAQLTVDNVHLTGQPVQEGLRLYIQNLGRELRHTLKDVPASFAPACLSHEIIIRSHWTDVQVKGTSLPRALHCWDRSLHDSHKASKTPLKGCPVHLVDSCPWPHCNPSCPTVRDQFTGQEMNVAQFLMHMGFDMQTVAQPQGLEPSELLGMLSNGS", "assay": "SPR (Biacore), antigen at 12.5 to 0.78125 nM, 1:1 Langmuir binding model", "protocol": "Binding characteristics for antibodies were assessed using antibody capture Biacore technology. Disassociation constant values Kd (koff/kₒₙ) were determined for selected antibodies. A Biacore 3000 (GE Healthcare) biosensor was used for surface plasmon resonance (SPR) kinetic measurements. Using purified antibody quantitative koff constants were derived through capture the antibody on the sensor surface. Anti-mouse IgG was immobilized on the CM5 surface of sensor chip using standard amine coupling chemistry. Each mAb was captured onto an anti-IgG surface before the antigen was injected over the immobilized antibody allowing the antibody-antigen interaction to be analyzed.\nThree methods were used to characterize the affinity of humanized SC2.D2.2 relative to its analogous mAb with the murine variable region. First, binding signal was measured for a fixed amount of antibody probed against serial dilutions of antigen in an ELISA format. Measured signal levels were substantially similar (data not shown). Second, the affinity of murine SC2.D2.2 was measured by Biacore using surface plasmon resonance (SPR) to provide the results set forth in FIG. 32A. […] Long off-rates for this interaction made accurate determination of affinity through kinetics difficult. […]"}, "[2]": {"system": "mouse lineage-depleted NTX tumor cells from SCRx-CR4", "assay": "Cell survival/proliferation, CellTiterGlo, SCRx-CR4", "assay_type": "cell-based, human", "conditions": "antibody 10 μg/mL, versus MOPC isotype control", "protocol": "To determine whether Notum protein impacts cell proliferation and/or apoptosis of human colorectal cancer cells, HCT-116 cells or mouse lineage-depleted NTX tumor cells (i.e. human tumor cells) were plated as described below and exposed to recombinant hNotum (e.g. hNotum-His or hNotum-hFc) and anti-Notum antibodies. Cell numbers were then assessed 12-14 days later.\nCells were then incubated for 14 days at 37° C., 5% CO2 and 5% O2 and the number of viable cells was assessed using Promega's CellTiterGlo assay kit per the manufacturer's instructions. For the HCT-116 cell line (a commercially available colorectal tumor cell line), cells were plated at 2,000 cells per well in DMEM+1% FBS, followed 24-hours later by the addition of serum free DMEM containing recombinant human Notum in the presence or absence of monoclonal antibodies SC2.D2.2 or SC2.10B3. HCT-116 cells were then incubated for 12 days at 37° C., 5% CO2 and cell viability was assessed with Promega's CellTiterGlo assay kit. Higher readings are indicative of higher viable cell counts."}, "[3]": {"target": "T2, hNotum-His (His tagged human Notum) (human, UniProt Q6P988 20-496)", "T2 construct": "also called human Notum-His; NOTUM-StrepHis", "T2 sequence": "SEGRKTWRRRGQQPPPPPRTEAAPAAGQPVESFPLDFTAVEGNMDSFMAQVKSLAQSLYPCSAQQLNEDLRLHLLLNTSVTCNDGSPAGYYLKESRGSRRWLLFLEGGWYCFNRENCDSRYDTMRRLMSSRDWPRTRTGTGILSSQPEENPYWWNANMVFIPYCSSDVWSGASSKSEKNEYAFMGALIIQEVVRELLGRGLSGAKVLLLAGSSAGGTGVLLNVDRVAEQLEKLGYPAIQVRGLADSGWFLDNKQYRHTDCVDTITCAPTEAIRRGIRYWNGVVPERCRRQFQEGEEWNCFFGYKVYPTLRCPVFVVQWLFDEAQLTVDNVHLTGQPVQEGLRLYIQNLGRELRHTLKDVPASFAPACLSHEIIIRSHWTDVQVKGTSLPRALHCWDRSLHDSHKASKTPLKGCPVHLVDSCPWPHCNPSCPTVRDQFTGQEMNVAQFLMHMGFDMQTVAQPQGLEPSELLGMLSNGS", "assay": "sandwich ELISA: SC2.D2.2 coated at 2 ug/ml captures Notum-His, detected with biotinylated mouse polyclonal anti-Notum 0.5 ug/ml and streptavidin-HRP, TMB, OD450", "protocol": "More specifically, murine SC2.D2.2 was absorbed on standard ELISA plates at 2 μg/ml in a 50 mM sodium carbonate buffer at pH9.6. After washing the plates with PBS containing 0.05% (v/v) Tween-20 (PBST), the plates were blocked in PBS containing 2% (w/v) bovine serum albumin (BSA buffer) for two hours at ambient temperature. The content of the plates was flicked off, and purified recombinant Notum-His at varying concentrations (i.e., to provide the standard curve) or patient samples diluted in BSA buffer were added to the plates for a minimum of two hours at ambient temperature. The plates were washed in PBST before adding Notum-specific mouse polyclonal antibody conjugated to biotin at 0.5 μg/ml in BSA buffer. After incubation for one hour, the plate was washed again with PBST and incubated for 30 minutes with a 1:2000 dilution of Streptavidin conjugated to horse radish peroxidase (Jackson Immuno Research). After washing all plates twice with PBST, 100 μl TMB substrate (Thermo Scientific) was added to the wells and incubated for 30 minutes in the dark. Color reaction was stopped by adding 100 μl/well 2M sulfuric acid. Absorbance at OD 450 nm was read in all wells using a standard plate reader."}}}
{"molecule": "B1", "values": [{"measurement": "neutralization of mutant Notum protein", "setting": "macaque Notum N141D", "value": "enabled the antibody to neutralize the mutant protein"}, {"measurement": "Kd", "setting": "[1]", "value": "< 0.1", "unit": "nM"}, {"measurement": "effect on proliferation / cell numbers", "setting": "[2]", "value": "significantly less proliferation"}, {"measurement": "EC50 (read off the curve)", "setting": "[3]", "value": "~9", "unit": "ng/mL"}]}
